Results from IntAct's records for PubMed 24671035.

B1: FUN14 domain-containing protein 1 (Homo sapiens), Q8IVP5 (parent)
chain: MATRNPPPQDYESDDDSYEVLDLTEYARRHQWWNRVFGHSSGPMVEKYSVATQIVMGGVTGWCAGFLFQKVGKLAATAVGGGFLLLQIASHSGYVQIDWKRVEKDVNKAKRQIKKRANKAAPEINNLIEEATEFIKQNIVISSGFVGGFLLGLAS
partner: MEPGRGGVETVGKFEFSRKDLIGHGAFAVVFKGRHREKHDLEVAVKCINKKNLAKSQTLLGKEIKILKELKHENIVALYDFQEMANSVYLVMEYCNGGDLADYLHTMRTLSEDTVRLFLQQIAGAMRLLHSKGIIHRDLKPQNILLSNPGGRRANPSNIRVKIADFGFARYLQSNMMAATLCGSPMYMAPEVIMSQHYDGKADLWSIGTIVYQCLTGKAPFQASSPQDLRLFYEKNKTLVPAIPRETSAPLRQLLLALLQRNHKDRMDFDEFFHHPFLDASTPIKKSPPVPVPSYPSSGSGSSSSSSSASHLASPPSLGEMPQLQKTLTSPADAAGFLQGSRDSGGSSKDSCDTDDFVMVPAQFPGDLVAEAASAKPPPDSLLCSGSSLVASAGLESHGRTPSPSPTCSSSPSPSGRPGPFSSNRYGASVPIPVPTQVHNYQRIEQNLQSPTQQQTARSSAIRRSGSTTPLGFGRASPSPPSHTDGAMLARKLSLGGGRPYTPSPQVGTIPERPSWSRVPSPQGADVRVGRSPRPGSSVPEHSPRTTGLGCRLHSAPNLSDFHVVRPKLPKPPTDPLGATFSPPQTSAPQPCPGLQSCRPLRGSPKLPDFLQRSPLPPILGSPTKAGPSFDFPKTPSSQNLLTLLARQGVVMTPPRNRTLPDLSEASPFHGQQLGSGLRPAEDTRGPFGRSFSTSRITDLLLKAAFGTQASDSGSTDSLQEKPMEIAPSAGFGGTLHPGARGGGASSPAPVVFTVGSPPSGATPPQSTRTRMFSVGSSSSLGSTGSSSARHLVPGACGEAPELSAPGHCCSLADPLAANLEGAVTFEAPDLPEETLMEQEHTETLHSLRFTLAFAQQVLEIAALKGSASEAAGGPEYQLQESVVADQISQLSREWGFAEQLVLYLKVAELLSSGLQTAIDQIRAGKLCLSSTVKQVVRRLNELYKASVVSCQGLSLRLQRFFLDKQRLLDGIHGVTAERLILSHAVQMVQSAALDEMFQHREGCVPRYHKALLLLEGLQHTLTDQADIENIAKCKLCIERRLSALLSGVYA
B2: FUN14 domain-containing protein 1 (Homo sapiens), Q8IVP5 (parent)
chain: B1 chain

Variants of: B1
Conditions: with ulk1_mouse Ulk1, O70405

Row | effect of a mutation on the interaction | Variant
1 | disrupting interaction | MATRNPPPQDYESDDDSYEVLDLTEYARRHQWWNRVFGHSSGPMVEKYSVATQIVMGGVTGWCAGFLFQKVGKLAATAVGGGFLLLQIASHSGYVQIDWKRVEKDVNKAKRQIKKRAAKAAPEINNLIEEATEFIKQNIVISSGFVGGFLLGLAS

Variants of: B2
Conditions: with mlp3b_human MAP1LC3B

Row | effect of a mutation on the interaction | Variant
2 | decreasing interaction | MATRNPPPQDYESDDDAYEVLDLTEYARRHQWWNRVFGHSSGPMVEKYSVATQIVMGGVTGWCAGFLFQKVGKLAATAVGGGFLLLQIASHSGYVQIDWKRVEKDVNKAKRQIKKRANKAAPEINNLIEEATEFIKQNIVISSGFVGGFLLGLAS

Variants of: B2
Conditions: with mlp3b_human MAP1LC3B
Remark: another data set of the same source

Row | effect of a mutation on the interaction | Variant
3 | increasing interaction | MATRNPPPQDYESDDDDYEVLDLTEYARRHQWWNRVFGHSSGPMVEKYSVATQIVMGGVTGWCAGFLFQKVGKLAATAVGGGFLLLQIASHSGYVQIDWKRVEKDVNKAKRQIKKRANKAAPEINNLIEEATEFIKQNIVISSGFVGGFLLGLAS
